Data as given in publication PMC9072312 (2022).

Key:
Test in all cases: MST
[1] = biological target: NT-Als9-2-Ig (N′-terminal domain of C. albicans Als9, allele Als9-2, fused to the Fc domain of human IgG1) (C. albicans)
[2] = biological target: T1, NT-Als7-Ig (N′-terminal domain of C. albicans Als7 fused to the Fc domain of human IgG1) (C. albicans, UniProt Q5A312 19-329)
T1 chain: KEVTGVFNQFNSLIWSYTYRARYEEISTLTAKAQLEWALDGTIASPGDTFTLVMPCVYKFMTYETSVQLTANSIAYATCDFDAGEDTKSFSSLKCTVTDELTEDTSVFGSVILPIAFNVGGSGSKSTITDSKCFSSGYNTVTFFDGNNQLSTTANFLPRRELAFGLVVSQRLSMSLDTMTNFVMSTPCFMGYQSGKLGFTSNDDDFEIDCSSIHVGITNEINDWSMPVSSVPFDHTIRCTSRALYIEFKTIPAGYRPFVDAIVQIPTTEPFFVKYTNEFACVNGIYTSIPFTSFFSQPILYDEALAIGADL

[3] = biological target: T2, NT-Als6-Ig (N′-terminal domain of C. albicans Als6 fused to the Fc domain of human IgG1) (C. albicans, UniProt Q5A2Z7 19-329)
T2 chain: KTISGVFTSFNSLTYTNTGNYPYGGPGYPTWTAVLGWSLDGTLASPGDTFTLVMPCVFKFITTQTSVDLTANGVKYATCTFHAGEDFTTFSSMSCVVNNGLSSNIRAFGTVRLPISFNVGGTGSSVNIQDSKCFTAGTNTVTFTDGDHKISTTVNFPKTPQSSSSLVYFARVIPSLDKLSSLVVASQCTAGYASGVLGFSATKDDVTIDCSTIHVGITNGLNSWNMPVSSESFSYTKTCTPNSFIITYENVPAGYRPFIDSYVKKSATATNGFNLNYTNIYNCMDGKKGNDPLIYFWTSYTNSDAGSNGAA

[4] = biological target: T3, PVR-Ig (extracellular portion of human PVR fused to the Fc domain of human IgG1) (human, UniProt P15151 21-343)
T3 chain: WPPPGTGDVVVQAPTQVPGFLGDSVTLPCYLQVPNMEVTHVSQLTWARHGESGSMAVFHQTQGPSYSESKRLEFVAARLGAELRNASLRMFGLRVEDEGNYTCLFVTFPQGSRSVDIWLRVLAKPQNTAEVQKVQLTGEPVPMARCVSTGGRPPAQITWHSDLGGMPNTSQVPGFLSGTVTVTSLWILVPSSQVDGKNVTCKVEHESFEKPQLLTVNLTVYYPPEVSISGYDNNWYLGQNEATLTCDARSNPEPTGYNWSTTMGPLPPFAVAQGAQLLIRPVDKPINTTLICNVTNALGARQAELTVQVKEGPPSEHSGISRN

B1: TIGIT-Ig (extracellular ligand-binding domain of human TIGIT fused to the Fc domain of human IgG1) (Fc fusion)
chain: MMTGTIETTGNISAEKGGSIILQCHLSSTTAQVTQVNWEQQDQLLAICNADLGWHISPSFKDRVAPGPGLGLTLQSLTVNDTGEYFCIYHTYPDGTYTGRIFLEVLESSVAEHGARFQIP
modifications: fluorescently labeled with the Monolith NT Protein Labeling Kit RED-NHS
Q: What does the source list for B1?
A: Kd [1]: 455 nM; Kd [2]: 42 nM; Kd [3]: 6 nM; Kd [4]: 49 nM
